{"source": "patent US8357518B2", "about": "“Thermostable enzymes for the hydrolysis of mannan-containing polysaccharides” (The Board of Trustees of the University of Illinois, priority 2010, dated 2013)", "proteins": {"B1": {"name": "Caldanaerobius polysaccharolyticus endo-β-mannanase Man5A truncation mutant Man5A-TM1, SEQ ID NO: 28 (Caldanaerobius polysaccharolyticus) (protein)", "chain": "AGTSGDGRFHVVGNKIVDPDGKDFIIKGVNIQGYRSWEKRSVLQDVHLIADVWKFNTVRLNCFIGQNNWGEGTGANNDIDAIIKAFTAKKVVVEIDLHDTTGYPPLSNPPPAPGQPSLDQAIAWFKELAAKYKDNPYVWFNTMNEPGSSTAPLDPQWKVANEEIIKAIRSTGADNIIVVDGWSYANEGIEQNTPTVDEKRSAVLTYGQDLLNADSAKNTIFAFHNYNEGDIQKKVEDYIDRANAKGLYVFMEEYGKDYSDAAKEGVKSGLQAVMNKGAGRIYWNWDGYDLYDLTSGTGRGSGWEINKTDGSKPTNLSWVGDKIWDDNHGITPTFDDQNPKVDLALERLIANNNGFKAGDKVQFTTFLRNSGDLPIGKDSKVVVKFYVDGVQLGDPVEISGGIAVGQRIPVTSPELTVSKTDFTVKAVIDSSSTYADGAEDAVIENNWIEAAFNSTAPSSGYELVVTGIKITPDTVKEGDYVQAQVTVANQGPEATPVTNIIGWFYVNGYYYTLDDAAKSCAEQDNVTLKPGESITLSTKVKYRAAAPFNFSFVLENLYADDQNQSNNSITVNVPVKMGEGGVNMVSNPGFEDGLDSWQDWQQDMSAVPEAAHNGALGLKIGGGKAAGGGQDIPLKPNTTYILGAWAKFDSKPAGTFDVVVQYHLKDANNTYVQHILNFNETDWTYKQLLFTTPDVFGSTPQLALWKGDTSKANLYVDDVYLVEVSNLIVNGTAENGMDGWPDWGYPVSAVPEAAYGGTKGFKLSGGKQAGMGQKVALKPNTTYILGAWGKFTAKPGTYCDVIVQYHLKDANNTYVQNILRFTETDWTYKQVVFTTPDAFGSDPEFVLWKDDASNADFYADNITLVEV"}}, "substrate": "O=[N+]([O-])c1ccc(O[C@@H]2O[C@H](CO)[C@@H](O)[C@H](O)[C@@H]2O)cc1", "assay": "Catalytic efficiency with pNP-linked sugars (Man5A-TM1)", "assay_type": "biochemical, Caldanaerobius polysaccharolyticus", "settings": "other: Man5A-TM1, pNP substrates, citrate buffer 50 mM, pH 5.5, 65° C., triplicate", "experimental": "The plasmid constructs were then introduced into E. coli BL-21 CodonPlus (DE3) RIL competent cells by heat shock, and grown overnight in lysogeny broth (LB) agar medium supplemented with ampicillin (100 μg/mL) and chloramphenicol (50 μg/mL) at 37° C. After 12 h, single colonies were selected and used to inoculate fresh LB (10 mL) supplemented with the antibiotics above at the same concentrations, followed by culturing with aeration for 8 h at 37° C. The pre-cultures were then inoculated into fresh LB (1 L) supplemented with ampicillin and chloramphenicol and the cultures were incubated at 37° C. with vigorous aeration (225 rpm/min). […] Aliquots of eluted fractions were analyzed by sodium dodecyl sulfate-polyacrylamide gel electrophoresis (SDS-PAGE) and protein bands were visualized by staining with Coomassie brilliant blue G-250. […] The UV absorbances of the protein solutions were recorded at 280 nm using a Nanoprop 1000 from Thermo Scientific (Waltham, Mass.) and the protein concentrations were calculated using the following extinction coefficients: Man5A-TM1, ε280 nm=189 mM^−1 cm^−1; Man5A-TM2, ε280 nm=113 mM^−1 cm^−1; Man5B, ε280 nm=103 mM^−1 cm^−1.\nHydrolysis of para-nitrophenyl (pNP) linked sugars. […] The extinction coefficient of pNP at pH 5.5 was determined as 1636 M^−1 cm^−1."}
{"protein": "B1", "values": [{"measurement": "kcat/Km", "result": "(1.4 ± 0.3) × 10^−2 mM^−1 s^−1"}]}
